Experimental data reported in paper PMC7887213 (Nature Communications, 2021).
Changes are numbered by the printed parent chain.

B1: Fab364 (Fab, V domains shown)
VH: QVQLVESGGGVVQPGGSLRLSCAASGFTFSGYGMHWVRQVPGKGLEWVAIIWFDGSQKYYADSVQGRFTISRDNSKKTLFLRMNSLRAEDTAVYYCAKVHDDEPTQDYWGQGTLVTVSS
VL: DIQMTQSPSTLSASVGDRVTITCRASQGISTSLAWYQQKPGKAPKLLIYKASSLESGVPSRFSGSGSGTEFTLTITSLQPEDFATYYCQQYKRYWTFGQGTKVEIK
notes: also called mAb364; source: ExpiCHO cells, purified (HiTrap Protein G, SEC)
B2: Fab395 (Fab, V domains shown)
VH: QEQLVESGGGVVQPGRSLRLSCAAASEFCFSCYGMHWVRQAPGKGLEWVAVIWHDGSNQHFADSVKGRFTISRDNSKNIMYLQMNSLRAEDTAVYYCASATRYDILTGAFDYWGQGTLVTVSS
VL: B1 VL with G28S, S32W, T76S, E81D, K92S
notes: also called mAb395; source: ExpiCHO cells, purified (HiTrap Protein G, SEC)
B3: Fab364 (Fab, V domains shown)
VH: B1 VH
VL: B1 VL
notes: as for B1
B4: Fab224 (Fab, V domains shown)
VH: EVQLVESGGGLVQPGRSLRLPCTASGFSFGDHAMSWVRQAPGKGLEWVGFIRKTTYGATTHYAAAVRGRFTISRDDSKSIVYLQMNSLKTEDTAVYFCTRVQLDYGPGYQYYGMDVWGQGTTVTVSS
VL: ESVLTQPPSVSGAPGQRVTISCTGMNSNIGAGYDVYWYQQLPGRAPKLLIYGNSNRPSGVPDRFSGSRSGTSASLAITGLQAEDEADYYCQSYDTSLNGWAFGGGTKLTVL
notes: also called mAb224; source: ExpiCHO cells, purified (HiTrap Protein G, SEC)
B5: Fab224 (Fab, V domains shown)
VH: B4 VH
VL: B4 VL
notes: as for B4
B6: Fab399 (Fab, V domains shown)
VH: EVQLVESGGGLVQPGRSLRLSCTTSGFTFGDYAMSWFRQAPGKGLEWVGFIRSKGFGGTAEYAAFVKGRFTISRDDSRSIAYLQMTSLKPEDTAVYYCSRVGVVIATAVYWGQGTLVTVSS
VL: DILMTQTPLSLSVTPGQPASISCKSSQSLLDNDGKTYLYWYLQKPGQSPQLLIYEVSNRFSGVPERFSGSGSGTDFTLKIRRVEAEDVGVYYCMQRIDLPWTFGQGTKVEIK
notes: also called mAb399; source: ExpiCHO cells, purified (HiTrap Protein G, SEC)
B7: Fab239 (Fab, V domains shown)
VH: QVQLVESGGGVVQPGRSLRLSCAASRLTFRNFGMHWVRQTPGKGLEWVAVIWHDGSNKFYADSVEGRFTISRDNSKNTLYLQMNSLRDEDTAIYYCAKDWGGASDRVFDYWGRGTLVIVSS
VL: DIQMTQSPSTLSASVGDRVTITCRASQSVSTSLAWYQQKPGKAPNLLIYQASTLYRGVPSRFSGSGSGTEFTLTIGSLQPDDFATYYCQHYNSYSRITFGQGTRLEIK
notes: also called mAb239; source: ExpiCHO cells, purified (HiTrap Protein G, SEC)
B8: Fab239 (Fab, V domains shown)
VH: B7 VH
VL: B7 VL
notes: as for B7
B9: Fab397 (Fab, V domains shown)
VH: EVQLVKSGGGLVKPGGSLRLSCAVSGFTFTDAWMSWVRQAPGKGPEWVGRIKSNPDGGTTDYAAPVRGRFTISRDDSKNTLYLQMNNLKTEDTAVYYCITDRDFYRSGGSWGQGTLVTV
VL: DIVMTQSPLSLPVTPGEPASISCRSRQSLLYSNGDNYLDWYLQKPGQSPQLLIYLGSNRAPGVPDRFSGSGSGTDFTLKISRVEAEDVGVYYCMQTLQTPHTFGQGTKLEIK
notes: also called mAb397; source: ExpiCHO cells, purified (HiTrap Protein G, SEC)
B10: Fab397 (Fab, V domains shown)
VH: B9 VH
VL: B9 VL
notes: as for B9
B11: Fab317 (Fab, V domains shown)
VH: QMQLVESGGGVVQPGRSLRLSCTASGFTFSTYAMHWVRQSPGQGLQWVAVISYHSTNKYYEDSVRGRFTISRDNSKNTLYLQMNSLRAEDTAVYYCARDGYSSSFFDFWGQGTLVTVSS
VL: DIQMTQSPSTLSASVGDRVAITCRASQSISRWLAWYQQQPGKAPKLLMSGASVLESGVPSRFSGSGSGTEFTLTISSLQPDDFATYYCQHYNSYFVTFGQGTKVEIK
notes: also called mAb317; source: ExpiCHO cells, purified (HiTrap Protein G, SEC)
B12: Fab317 (Fab, V domains shown)
VH: B11 VH
VL: B11 VL
notes: as for B11
B13: Fab366 (Fab, V domains shown)
VH: QVQLVQSGAEVKKPGASARVSCKASGYTLTDFYLHWVRQAPGQGLEWMGWLNPHSGGTNYAQKFLGRVSMTRDTSISTAYMELNKLISDDTAVYFCVRSDQEALRGAFDIWGQGTMVFVSS
VL: DIQMTQSPSSLSASVGDTVTITCRASQSINDYLNWYQQKPGKAPKLLIYATSSLHSGVPSRFSGSGFGTDFTLTISSLQPEDSATYLCQQSHSLWTFGQGTKVEVK
notes: also called mAb366; source: ExpiCHO cells, purified (HiTrap Protein G, SEC)
B14: Fab311 (Fab, V domains shown)
VH: EVQLVESGGGVVPPGRSLRLSCATSGFTFSNYGMHWVRQAPGKGLEWVAIIWYDGSRNFYAASVEGRFTISRDNSKNTLYLQMNSLRVEDTAVYYCARAAYYDTSGYGDYWGQGTLVTVSS
VL: ESVLTQPPSVSGAPGQTVTISCTGGSSNIGAGYDVHWYQQLPGTAPKLLIYGNINRPSGVPDRFSGSKSGTSASLAITGLQAEDEADYYCQSYDRRLSGSWVFGGGTKLTVL
notes: also called mAb311; source: ExpiCHO cells, purified (HiTrap Protein G, SEC)
B15: Fab311 (Fab, V domains shown)
VH: B14 VH
VL: B14 VL
notes: as for B14
B16: Fab356 (Fab, V domains shown)
VH: VQLVESGGGVVQPGRSLRLSCAASGFTFRNFGMHWVRQTPGKGLEWVAVIWHDGSNKFYADSVEGRFTISRDNSKNMIYLQMNSLRVEDTAIYYCARDSLFYDHDNSGYYGYWGQGTLVTVSS
VL: QIVMTQSPATVSVSPGERATLSCRASRSVTSKLAWYQQKPGQAPRLLIYGASTRATGIPARFSGSGSGTEFTLTISSLQSEDFAVYFCQQYNNGFTFGPGTKVDFK
notes: also called mAb356; source: ExpiCHO cells, purified (HiTrap Protein G, SEC)

Columns and labels:
Settings in all cases: both partners purified
[1] = target: T1, Ac-[residues removed]-NH2 (NPNA4 peptide) (Plasmodium falciparum (synthetic CSP …)); assay: ITC; peptide in the syringe, Fab (~10 uM) in the cell; DPBS, 25 °C; single-site binding model; triplicate, mean ± SD; No. of sites = peptide per Fab
T1 construct: also called 16-mer peptide; source: synthetic peptide; bought: Innopep Inc

[2] = target: T2, Ac-[residues removed]-NH2 (NPNA6 peptide) (Plasmodium falciparum (synthetic CSP …)); assay: as above
T2 construct: also called 24-mer peptide; source: synthetic peptide; bought: Innopep Inc

[3] = target: T3, Ac-[residues removed]-NH2 (NPNA2 peptide) (Plasmodium falciparum (synthetic CSP …)); assay: as above
T3 construct: also called 8-mer peptide; source: synthetic peptide; bought: Innopep Inc

[4] = target: T4, NPNA6 peptide (Ac-[residues removed]-NH2) (Plasmodium falciparum (synthetic CSP …); assay: ITC; peptide in the syringe, Fab (~10 uM) in the cell; DPBS; 25 C; single-site binding model; triplicate; apparent affinity
T4 construct: source: synthetic peptide, bought: Innopep Inc

[5] = target: T5, NPNA4 peptide (Ac-[residues removed]-NH2) (Plasmodium falciparum (synthetic CSP …); assay: as above
T5 construct: source: synthetic peptide, bought: Innopep Inc

[6] = target: T6, NPNA2 peptide (Ac-[residues removed]-NH2) (Plasmodium falciparum (synthetic CSP …); assay: as above
T6 construct: source: synthetic peptide, bought: Innopep Inc

Binder | stoichiometry N [1] | stoichiometry N [2] | stoichiometry N [3] | Kd [4] [nM] | Kd [5] [nM] | Kd [6] [nM]
B1 | 0.634 | 0.445 | 1.41 |  |  | 
B2 | 0.608 | 0.432 | 1.35 |  |  | 
B3 |  |  |  | 27 | 28 | 47
B4 | 1.26 | 0.749 | 1.59 |  |  | 
B5 |  |  |  | 141 | 126 | 14200
B6 | 1.74 | 0.737 | 3.23 |  |  | 
B7 | 0.572 | 0.348 | 1.34 |  |  | 
B8 |  |  |  | 10 | 20 | 641
B9 | 1.3 | 0.73 | 1.18 |  |  | 
B10 |  |  |  | 92 | 255 | 2740
B11 | 0.95 | 0.723 | 1.36 |  |  | 
B12 |  |  |  | 111 | 70 | 132
B13 | 1.21 | 0.67 | 1.21 |  |  | 
B14 | 0.578 | 0.386 | 1.27 |  |  | 
B15 |  |  |  | 19 |  | 152
B16 | 0.542 | 0.354 | 1.29 |  |  | 
